Test results taken from patent US20090280138A1 (OXFORD BIOMEDICA UK, published 2009).

Assays:
Test in all cases: iTopia iScore
[1] = biological target: T1, MHC class I molecule A*0201 (biotin (bound to streptavidin-coated plate))
T1 construct: also called A2; HLA-A2
Protocol: (§1) The 9 mers were tested for Peptide Binding, Off Rate and Affinity using iTopia Epitope Discovery System in accordance with the manufacturer's instructions. Briefly, 96 well microtitre plates coated with MHC molecules representing different MHC alleles are used to identify candidate peptides. […] Determinations are performed in duplicate using an ELISA plate reader and included allele specific positive controls.
(§2) Finally, multiparametric analysis is performed on the results from these assays and an iScore is generated. The iScore represents a measure of the overall quality of peptide-MHC binding, enabling candidate peptides to be ranked in order of binding quality and allowing rational prioritisation of peptides for functional cellular follow-up studies.

[2] = biological target: T2, MHC class I molecule B*0702 (biotin (bound to streptavidin-coated plate))
T2 construct: also called B7; HLA-B7
Protocol: as §1, §2

[3] = biological target: T3, MHC class I molecule A*0301 (biotin (bound to streptavidin-coated plate))
T3 construct: also called A3; HLA-A3
Protocol: as §1, §2

[4] = biological target: T4, MHC class I molecule A*0101 (biotin (bound to streptavidin-coated plate))
T4 construct: also called A1; HLA-A1
Protocol: as §1, §2

| Binder | iScore [1] | iScore [2] | iScore [3] | iScore [4] |
| --- | --- | --- | --- | --- |
| MPGGCSRGP [5T4 9-mer peptide 1 MPGGCSRGP] | 0 | 0 | 0 | 0 |
| GGCSRGPAA [5T4 9-mer peptide 2 GGCSRGPAA] | 0.016 | 0.012 | 0 | 0 |
| CSRGPAAGD [5T4 9-mer peptide 3 CSRGPAAGD] | 0 | 0 | 0 | 0 |
| RGPAAGDGR [5T4 9-mer peptide 4 RGPAAGDGR] | 0.032 | 0 | 0 | 0 |
| PAAGDGRLR [5T4 9-mer peptide 5 PAAGDGRLR] | 0 | 0 | 0 | 0 |
| AGDGRLRLA [5T4 9-mer peptide 6 AGDGRLRLA] | 0.023 | 0 | 0 | 0 |
| DGRLRLARL [5T4 9-mer peptide 7 DGRLRLARL] | 0 | 0.038 | 0 | 0 |
| RLRLARLAL [5T4 9-mer peptide 8 RLRLARLAL] | 0.216 | 1 | 0.027 | 0 |
| ARLALVLLG [5T4 9-mer peptide 10 ARLALVLLG] | 0.143 | 0 | 0 | 0 |
| LALVLLGWV [5T4 9-mer peptide 11 LALVLLGWV] | 0.237 | 0 | 0 | 0 |
| LVLLGWVSS [5T4 9-mer peptide 12 LVLLGWVSS] | 0.122 | 0 | 0 | 0 |
| LLGWVSSSS [5T4 9-mer peptide 13 LLGWVSSSS] | 0.243 | 0 | 0 | 0 |
| GWVSSSSPT [5T4 9-mer peptide 14 GWVSSSSPT] | 0.044 | 0 | 0 | 0 |
| VSSSSPTSS [5T4 9-mer peptide 15 VSSSSPTSS] | 0 | 0 | 0 | 0 |
| SSSPTSSAS [5T4 9-mer peptide 16 SSSPTSSAS] | 0 | 0 | 0 | 0 |
| SPTSSASSF [5T4 9-mer peptide 17 SPTSSASSF] | 0 | 0.335 | 0 | 0 |
| TSSASSFSS [5T4 9-mer peptide 18 TSSASSFSS] | 0.037 | 0 | 0 | 0 |
| SASSFSSSA [5T4 9-mer peptide 19 SASSFSSSA] | 0.045 | 0 | 0 | 0 |
| SSFSSSAPF [5T4 9-mer peptide 20 SSFSSSAPF] | 0.037 | 0 | 0 | 0 |
| FSSSAPFLA [5T4 9-mer peptide 21 FSSSAPFLA] | 0.116 | 0 | 0 | 0.023 |
| SSAPFLASA [5T4 9-mer peptide 22 SSAPFLASA] | 0.389 | 0 | 0 | 0 |
| APFLASAVS [5T4 9-mer peptide 23 APFLASAVS] | 0.041 | 0.176 | 0 | 0 |
| FLASAVSAQ [5T4 9-mer peptide 24 FLASAVSAQ] | 0.134 | 0 | 0 | 0 |

| Binder | iScore [1] | iScore [2] | iScore [3] | iScore [4] |
| --- | --- | --- | --- | --- |
| ASAVSAQPP [5T4 9-mer peptide 25 ASAVSAQPP] | 0 | 0 | 0 | 0 |
| AVSAQPPLP [5T4 9-mer peptide 26 AVSAQPPLP] | 0.062 | 0 | 0 | 0 |
| SAQPPLPDQ [5T4 9-mer peptide 27 SAQPPLPDQ] | 0 | 0 | 0 | 0 |
| QPPLPDQCP [5T4 9-mer peptide 28 QPPLPDQCP] | 0 | 0 | 0 | 0 |
| PLPDQCPAL [5T4 9-mer peptide 29 PLPDQCPAL] | 0.88 | 0 | 0 | 0 |
| PDQCPALCE [5T4 9-mer peptide 30 PDQCPALCE] | 0 | 0 | 0 | 0 |
| QCPALCECS [5T4 9-mer peptide 31 QCPALCECS] | 0 | 0 | 0 | 0 |
| PALCECSEA [5T4 9-mer peptide 32 PALCECSEA] | 0.082 | 0 | 0 | 0 |
| LCECSEAAR [5T4 9-mer peptide 33 LCECSEAAR] | 0 | 0 | 0 | 0 |
| ECSEAARTV [5T4 9-mer peptide 34 ECSEAARTV] | 0 | 0 | 0 | 0 |
| SEAARTVKC [5T4 9-mer peptide 35 SEAARTVKC] | 0 | 0 | 0 | 0 |
| AARTVKCVN [5T4 9-mer peptide 36 AARTVKCVN] | 0.115 | 0.059 | 0 | 0 |
| RTVKCVNRN [5T4 9-mer peptide 37 RTVKCVNRN] | 0 | 0 | 0 | 0 |
| VKCVNRNLT [5T4 9-mer peptide 38 VKCVNRNLT] | 0 | 0 | 0 | 0 |
| CVNRNLTEV [5T4 9-mer peptide 39 CVNRNLTEV] | 0.05 | 0.093 | 0 | 0 |
| NRNLTEVPT [5T4 9-mer peptide 40 NRNLTEVPT] | 0 | 0 | 0 | 0 |
| NLTEVPTDL [5T4 9-mer peptide 41 NLTEVPTDL] | 0.253 | 0 | 0 | 0 |
| TEVPTDLPA [5T4 9-mer peptide 42 TEVPTDLPA] | 0 | 0 | 0 | 0 |
| VPTDLPAYV [5T4 9-mer peptide 43 VPTDLPAYV] | 0.059 | 0 | 0 | 0.098 |
| TDLPAYVRN [5T4 9-mer peptide 44 TDLPAYVRN] | 0 | 0 | 0 | 0 |
| LPAYVRNLF [5T4 9-mer peptide 45 LPAYVRNLF] | 0 | 0.389 | 0 | 0 |
| AYVRNLFLT [5T4 9-mer peptide 46 AYVRNLFLT] | 0.18 | 0 | 0 | 0 |
| VRNLFLTGN [5T4 9-mer peptide 47 VRNLFLTGN] | 0 | 0 | 0 | 0 |
